US20120039874 (published 2012)

T1: human AILIM-IgFc (human, UniProt Q9Y6W8)
T1 chain: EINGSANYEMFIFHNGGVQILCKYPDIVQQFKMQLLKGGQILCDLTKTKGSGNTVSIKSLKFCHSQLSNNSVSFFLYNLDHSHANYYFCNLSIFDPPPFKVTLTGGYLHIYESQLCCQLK


Target: T1, human AILIM-IgFc
Test: SPR

Row | Kd | Binder
1 | 1.1 nM | AII289 (JMab-138) (antibody, V domains shown) VH: EVQLVESGGGLVQPGGSLRLSCAASGFTFSSYDMHWVRQATGKGLEWVSAIGTAGDTYYPGSVKGRFTISRENAKNSLYLQMNSLRAGDTAVYYCVRDNRKVTHEHYYYYGMDVWGQGTTVTVSS VL: EIVLTQSPGTLSLSPGERATLSCRASQNIRSSYLAWYQQKPGQAPGLLIYGASSRATGIPDRFSGSGSGTDFTLTISRLEPEDFAVYYCQQFGSSPMCSFGQGTKLEIKR
2 | 0.77 nM | AII394 (JMab-139) (antibody, V domains shown) VH: EVQLVESGGGLVQPGGSLRLSCAASGFTFSSYDMHWVRQATGKGLEWVSAIGTAGDTYYPGSVKGRFTISRENAKNSLYLQMNSLRAGDTAVYYCVRDKRTVTHEHYYYYGMDVWGQGTTVTVSS VL: EIVLTQSPGTLSLSPGERATLSCRASQSISSSSLAWYQQKPGQAPGLLIFGASSRATGIPDRFSGSGSGTDFTLTISRLEPEDFAVYYCQQFGSSPMCSFGQGTKLEIKR
